# Measured values published in the supplement of paper PMC7877785.
# ± gives the uncertainty stated by the source.
# Assay: self-splicing fitness, log relative to wild type (ln ratio); higher = more splicing; Tetrahymena group I intron in knt gene, E. coli kanamycin selection, DiMSum; sequences stand for … in CUCUCU…GGAGGGAAAAGUUAUCAGGCAUGCACCUGGUAGCUAGUCUUUAAACCAAUAGAUUGCAUCGGUUUAAAAGGCAAGACCGUCAAAUUGCGGGAAAGGGGUCAACAGCCGUUCAGUACCAAGUCUCAGGGGAAACUUUGAGAUGGCCUUGCAAAGGGUAUGGUAAUAAGCUGACGGACAUGGUCCUAACCACGCAGCCAAGUCCUAAGUCAACAGAUCUUCUGUUGAUAUGGAUGCAGUUCACAGACUAAAUGUCGGUCGGGGAAGAUGUAUUCUUCUCAUAAGAUAUAGUCGGACCUCUCCUUAAUGGGAGCUAGCGGAUGAAGUGAUGCAACACUGGAGCCGCUGGGAACUAAUUUGUAUGCGAAAGUAUAUUGAUUAGUUUUGGAGUACUCGUGGUCG
# Outline: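 A randomised library covering all eight P1ex-region intron nucleotides was built with the intron in the knt kanamycin-resistance gene on pET-22b(+) and held in E. coli BL21(DE3). Cells were grown overnight at 37°C or 30°C on LB agar, with or without 25 μg/mL kanamycin, plus 100 μg/mL carbenicillin, 50 μM IPTG and 0.2% rhamnose, and pooled colonies were amplicon-sequenced on an Illumina HiSeq 2500. DiMSum fitness is the error-weighted combination of wild-type-normalised replicate fold changes, kanamycin versus none.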
Sequence,self-splicing fitness (ln) (30 °C),self-splicing fitness (ln) (37 °C)
AUUAAGCAAUAUUACGUUUU,-2.27 ± 0.11,-1.81 ± 0.12
AUUCAGCAAUAUUACGAAGA,-0.761 ± 0.13,-0.747 ± 0.12
AUUCAGCAAUAUUACGAAGU,-1.52 ± 0.11,-0.236 ± 0.12
AUUCAGCAAUAUUACGAGGA,-2.81 ± 0.32,-1.63 ± 0.16
AUUCAGCAAUAUUACGAUCG,-1.87 ± 0.1,-1.5 ± 0.12
AUUCAGCAAUAUUACGAUGC,-1.27 ± 0.11,0.0653 ± 0.13
AUUCAGCAAUAUUACGCAAA,-1.04 ± 0.14,-0.821 ± 0.16
AUUCAGCAAUAUUACGCAAC,-2.05 ± 0.18,-0.188 ± 0.17
AUUCAGCAAUAUUACGCACA,-0.671 ± 0.096,-0.192 ± 0.1
AUUCAGCAAUAUUACGCACC,-0.502 ± 0.1,0.457 ± 0.12
AUUCAGCAAUAUUACGCAGG,-1.26 ± 0.12,-0.594 ± 0.16
AUUCAGCAAUAUUACGCGAU,-3.46 ± 0.18,-3.23 ± 0.26
AUUCAGCAAUAUUACGCUCC,-0.31 ± 0.073,0.274 ± 0.096
AUUCAGCAAUAUUACGGAAG,-1.02 ± 0.096,-0.0127 ± 0.11
AUUCAGCAAUAUUACGGAGU,-4.52 ± 0.34,-2.3 ± 0.23
AUUCAGCAAUAUUACGGAUU,-4.2 ± 0.22,-2.21 ± 0.2
AUUCAGCAAUAUUACGGCAC,-0.847 ± 0.074,-0.407 ± 0.096
AUUCAGCAAUAUUACGGCAG,-1.14 ± 0.11,-0.688 ± 0.14
AUUCAGCAAUAUUACGGGGA,-1.93 ± 0.094,-0.802 ± 0.083
AUUCAGCAAUAUUACGGGGG,-2.77 ± 0.15,-2.14 ± 0.16
AUUCAGCAAUAUUACGGGGU,-3.78 ± 0.39,-2.85 ± 0.26

Sequence,self-splicing fitness (ln) (30 °C),self-splicing fitness (ln) (37 °C)
AUUCAGCAAUAUUACGGUGG,-3.09 ± 0.15,-1.58 ± 0.14
AUUCAGCAAUAUUACGUCGC,-2.74 ± 0.099,-1.86 ± 0.11
AUUCAGCAAUAUUACGUCUU,-0.0261 ± 0.083,0.411 ± 0.089
AUUCAGCAAUAUUACGUGCG,-0.448 ± 0.095,-0.262 ± 0.13
AUUCAGCAAUAUUACGUGGU,-3 ± 0.12,-0.786 ± 0.099
AUUCAGCAAUAUUACGUUCG,-0.646 ± 0.06,-0.898 ± 0.094
AUUGAGCAAUAUUACGACGU,-0.46 ± 0.12,-0.115 ± 0.13
AUUGAGCAAUAUUACGACUG,,-0.882 ± 0.25
AUUGAGCAAUAUUACGAUGC,-1.58 ± 0.38,
AUUGAGCAAUAUUACGAUGG,-2.84 ± 0.25,
AUUGAGCAAUAUUACGAUUG,-3.62 ± 0.3,-3.11 ± 0.26
AUUGAGCAAUAUUACGCGCC,-1.62 ± 0.48,
AUUGAGCAAUAUUACGCUCA,,-1.62 ± 0.4
AUUGAGCAAUAUUACGCUUG,-2.91 ± 0.18,-0.989 ± 0.18
AUUGAGCAAUAUUACGGAAU,-1.59 ± 0.17,-1.28 ± 0.2
AUUGAGCAAUAUUACGGAUG,-3.43 ± 0.28,-2.69 ± 0.38
AUUGAGCAAUAUUACGGCGA,-1.96 ± 0.16,-0.878 ± 0.15
AUUGAGCAAUAUUACGGCUG,-1.83 ± 0.14,-1.81 ± 0.17
AUUGAGCAAUAUUACGGGCA,-2.81 ± 0.23,-2.3 ± 0.29
AUUGAGCAAUAUUACGGUAC,,-1.72 ± 0.31
